In patent US5770396:

Assays:
[1] = target: rat FcεRI (αβγ2) (rat); experiment: IgE rosetting assay, cotransfected COS 7 cells; 50 µg/ml rat IgE added 30 minutes before mouse anti-DNP IgE (competitor of mouse anti-DNP IgE)
[2] = target: rat FcεRI (αβγ2) (rat); experiment: IgE rosetting assay, COS 7 cells cotransfected with α, β and γ cDNAs (29 transfections)
[3] = target: rat FcεRI α subunit (rat); experiment: IgE rosetting assay, COS 7 cells transfected with α cDNA alone (2 transfections); by the filing α does not reach the surface without β and γ
[4] = target: rat FcεRI (αβγ2) (rat); experiment: IgE rosetting assay, RBL cells (native rat receptor)
[5] = target: COS 7 cells cotransfected with the rat α and β subunits (rat); experiment: IgE rosetting assay, COS 7 cells transfected with α and β cDNAs (2 transfections); by the filing no IgE-binding sites reach the surface
[6] = target: rat FcεRI (αβγ2) (rat); experiment: IgE rosetting assay on cotransfected COS 7 cells

## non-specific rat IgE (antibody)
[1]
  IgE Binding (rosettes/cells counted) with inhibitor (rosettes per 7,542 cells counted): 0

## mouse IgE anti-DNP (antibody)
[2]
  IgE Binding (rosettes/cells counted) (rosettes per 41,238 cells counted): 920
[3]
  IgE Binding (rosettes/cells counted) (rosettes per 4,050 cells counted): 0
[4]
  IgE Binding (rosettes/cells counted): 100%
[5]
  IgE Binding (rosettes/cells counted) (rosettes per 3,504 cells counted): 0
[6]
  expression of IgE binding (% of cells): 5%
